Patent US12416034B2, “Recombinant production of steviol glycosides” (EVOLVA SA, priority 2011, dated 2025)

Experiments:
[1] = In vitro transcribed and translated UGTs incubated with rubusoside, LC-MS; assay type: biochemical
Procedure: (§1) EUGT11 was produced by in vitro transcription and translation, and incubated with various substrates in the RebD pathway. Similar experiments were carried out using in vitro transcribed and translated UGT91D2e. […] Compounds 1-3 were identified solely by mass and expected retention time. The numbers shown in FIG. 3 are the average peak height of the indicated steviol glycoside obtained from a LC-MS chromatogram, and, although not quantitative, can be used to compare the activity of the two enzymes. […] Both enzymes were able to convert steviol 19-O-monoglucoside (SMG) to compound 1, with EUGT11 being about ten times more efficient than UGT91D2e at converting 19-SMG to compound 1.
The left panel of FIG. 5 contains LC-MS chromatograms of the conversion of rubusoside to stevioside. The right panel of FIG. 5 contains chromatograms of the conversion of rubusoside to stevioside, to compound 2, and to compound 3 (RebE). Conversion of rubusoside to compound 3 requires two consecutive 1, 2-O-glycosylations at the 19- and 13-positions of steviol.

[2] = In vitro transcribed and translated UGTs incubated with RebA and UDP-glucose, LC-MS; assay type: biochemical
Procedure: In vitro transcription and translation of these genes was performed, and the resulting UGTs incubated with RebA and UDP-glucose. Following incubation, the reactions were analyzed by LC-MS. […] See LC-MS chromatograms in FIG. 4. As shown in the left panel of FIG. 4, UGT91D2e produced a trace amount of RebD when RebA was used as the feedstock.
as §1
Both enzymes were able to convert RebA to RebD. However, EUGT11 was approximately 30 times better at converting RebA to RebD. Overall, it appears that EUGT11 produces more product than UGT91D2e in all reactions (with similar time, concentrations, temperature, and purity of enzyme) except the conversion of rubusoside to stevioside.

[3] = Enzyme kinetics with RebA as substrate; assay type: biochemical; settings: Reb A
Procedure: A series of experiments were performed to determine kinetic parameters of EUGT11 and 91D2e-b. For both enzymes, 100 μM RebA, 300 μM UDP-glucose, and 10 U/mL Alkaline Phosphatase (Fermentas/Thermo Fisher, Waltham, MA) were used in the reactions. For EUGT11, the reactions were performed at 37° C. using 100 mM Tris-HCl, pH 7, and 2% enzyme. For 91D2e-b, the reactions were performed at 30° C. using 20 mM Hepes-NaOH, pH 7.6, 20% (by volume) enzyme. The initial velocities (V0) were calculated in the linear range of a product versus time plot.
To first investigate the linearity intervals, initial time-courses were done for each enzyme. EUGT11 was assayed at 37° C. for 48 h at initial concentrations of 100 μM RebA and 300 μM UDP-glucose. UGT91D2e-b was assayed at 37° C. for 24 h at initial concentrations of 200 μM RebA and 600 μM UDP-glucose. Based on these range-finding studies, it was determined that the initial 10 minutes in the case of EUGT11, and the initial 20 minutes in UGT91D2e-b would be in the linear range with respect to product formation, and therefore initial velocities of each reaction were calculated in those intervals. In the case of EUGT11, RebA concentrations assayed were 30 μM, 50 μM, 100 μM, 200 μM, 300 μM and 500 μM. Concentration of UDP-glucose was always three times the concentration of RebA and incubation was performed at 37° C. By plotting the calculated V0 as a function of the substrate concentrations, Michaelis-Menten curves were generated. By plotting the reciprocal of V0 and the reciprocal of [S], a Lineweaver-Burk graphic was obtained, with y=339.85x+1.8644; R^2=0.9759.
Vmax and KM parameters were determined from the curve-fit Lineweaver-Burk data, calculated from the x- and y intercepts (x=0, y=1/Vmax) and (y=0, x=−1/KM). Additionally, the same parameters also were calculated by a non-linear least squares regression, using the SOLVER function in Excel. The results obtained with both methods for EUGT11 and RebA are presented in Table 12, along with all the kinetic parameters of this example. Kcat is calculated based on Vmax divided by the approximate amount of protein in the assay.
In the case of UGT91D2e-b, RebA concentrations assayed were 50 μM, 100 μM, 200 μM, 300 μM, 400 μM and 500 μM. Concentration of UDP-glucose was always three times the concentration of RebA and incubation was performed at 30° C., in the reaction conditions described above for UGT91D2e-b. Additionally, kinetic parameters of UGT91D2e-b towards UDP-glucose were determined. UGT91D2e-b was incubated with increasing amounts of UDP-glucose (30 μM, 50 μM, 100 μM, and 200 μM), maintaining an excess of RebA (1500 μM). incubation was performed at 30° C., in optimal conditions for UGT91D2e-b.

[4] = Limiting factor in RebA to RebD reaction; assay type: biochemical
Procedure: Under the conditions described above for EUGT11, approximately 25% of the RebA administered was converted to RebD. The limiting factor in these conditions could be either the enzyme, UDP-glucose or RebA. Experiments were set up to distinguish between these possibilities. A standard assay was allowed to run its course during 4 hours. This was followed by addition of either extra RebA substrate, extra enzyme, extra UDP-glucose or extra enzyme and UDP-glucose.
Experiments were conducted to examine the limit to this benefit of adding bolus amounts of UDP-glucose and fresh enzyme in the conversion of RebA to RebD reaction. Additional enzyme or enzyme and UDP-glucose were added after 1, 6, 24 and 28 hours. In the case of the addition of both extra EUGT11 and UDP-glucose, a conversion of more than 70% was achieved. […] Alternatively, as explained below, EUGT11 may be metabolizing the UDP-glucose.

[5] = Stability of EUGT11: pre-incubation before RebA to RebD reaction; assay type: physicochemical
Procedure: Reactions were conducted to explore the stability of EUGT11 under various RebA to RebD reaction conditions. Omitting the substrate from the reaction mixture, EUGT11 was pre-incubated for various periods of time before substrate was added. Following a pre-incubation of the enzyme in 100 mM Tris-HCl buffer, substrate (100 μM RebA) and other reaction components (300 μM UDP-glucose, and 10 U/mL Alkaline Phosphatase (Fermentas/Thermo Fisher, Waltham, MA)) were added (0, 1, 4 or 24 hours after the incubation was started). The reaction was then allowed to proceed for 20 h, after which the reactions were stopped and RebD product-formation measured. Experiments were repeated at different temperatures: 30° C., 32.7° C., 35.8° C. and 37° C.

B1: EUGT11: UDP glycosyl transferase from Oryza sativa (GenBank AC133334), SEQ ID NO:152 (protein, listed as Oryza sativa)
chain: MDSGYSSSYAAAAGMHVVICPWLAFGHLLPCLDLAQRLASRGHRVSFVSTPRNISRLPPVRPALAPLVAFVALPLPRVEGLPDGAESTNDVPHDRPDMVELHRRAFDGLAAPFSEFLGTACADWVIVDVFHHWAAAAALEHKVPCAMMLLGSAHMIASIADRRLERAETESPAAAGQGRPAAAPTFEVARMKLIRTKGSSGMSLAERFSLTLSRSSLVVGRSCVEFEPETVPLLSTLRGKPITFLGLMPPLHEGRREDGEDATVRWLDAQPAKSVVYVALGSEVPLGVEKVHELALGLELAGTRFLWALRKPTGVSDADLLPAGFEERTRGRGVVATRWVPQMSILAHAAVGAFLTHCGWNSTIEGLMFGHPLIMLPIFGDQGPNARLIEAKNAGLQVARNDGDGSFDREGVAAAIRAVAVEEESSKVFQAKAKKLQEIVADMACHERYIDGFIQQLRSYKD
amount of compound 3 (RebE) produced from rubusoside [1]: significant amount | amount of RebD produced when RebA was used as the feedstock ([2]; LC-MS chromatograms, FIG. 4): significant amount | efficiency at converting RebA to RebD compared with UGT91D2e ([2]; in vitro transcribed and translated enzymes, preliminary quantification): approximately 30 times | Kcat ([3]; Lineweaver-Burk plot): 0.14 s⁻¹ | Km ([3]; Lineweaver-Burk plot): 182 µM | Vmax ([3]; Lineweaver-Burk plot): 0.54 µM/min | Kcat ([3]; Nonlinear Least Square Fit): 0.135 s⁻¹ | Km ([3]; Nonlinear Least Square Fit): 162 µM | Vmax ([3]; Nonlinear Least Square Fit): 0.52 µM/min | conversion of RebA to RebD ([4]; extra EUGT11 and UDP-glucose added after 1, 6, 24 and 28 hours): more than 70% | RebA converted to RebD ([4]; standard conditions for EUGT11): approximately 25% | activity after pre-incubation ([5]; 30° C., 4 hours): not significantly reduced | activity remaining after pre-incubation ([5]; 30° C., 24 hours): approximately one-third | activity remaining after pre-incubation ([5]; 37° C., 1 hour): approximately half | activity remaining after pre-incubation ([5]; 37° C., 4 hours): almost no activity
